Data set [1] deals with the molecule itself. The experiment in a line: SAXS; steady state, fully populated light state (continuous blue-light LED, 450 nm); beamline BM29; 20°C; 10 mM Tris, 10 mM NaCl, pH 7; data of 2.5 and 6.1 mg/mL merged; molecular mass from QR after Rambo and Tainer.
Data set [2] concerns the molecule itself. The experiment in a line: crystal structure; dark-state crystal structure of the double mutant, FMN bound (PDB 6GG9).

Changes are numbered by the printed parent chain. Names may count otherwise.

2 proteins from article PMC6047819, “Small-angle X-ray scattering study of the kinetics of light-dark transition in a LOV protein” (PLoS ONE, 2018) can be followed below.

As usually defined, the stoichiometry N is the number of molecules, sites or subunits per partner or assembly.

B1: PpSB1-LOV-R66I (natural protein, Pseudomonas putida)
chain: MINAQLLQSMVDASNDGIVVAEKEGDDTILIYVNAAFEYLTGYSRDEILYQDCRFLQGDDRDQLGIARIRKAMAEGRPCREVLRNYRKDGSAFWNELSITPVKSDFDQRTYFIGIQKDVSRQVELERELAELRARPKPDERA
notes: PpSB1-LOV, short LOV protein of Pseudomonas putida: LOV core domain flanked by N- and C-terminal helices; mutant R66I; It says that the N-terminal 20 and the C-terminal 8-9 amino acids are disordered in the wild-type crystal structures; also called PpSB1-R66I; PpSB1-LOV mutant R66I; source: purified (Ni-NTA Superflow, SEC on Superdex 200)
In the case of B1, in data set [1], the “stoichiometry N” value stood at 2.

B2: PpSB1-LOV-R61H/R66I (natural protein, Pseudomonas putida)
chain: B1 chain with R61H
notes: PpSB1-LOV, short LOV protein of Pseudomonas putida; double mutant R61H/R66I; dark-state crystal structure PDB 6GG9; also called PpSB1-R61H/R66I-LOV; double mutant
For B2, the binding result in data set [2] is on record as “binds”.
